From publication PMC10397247
Like-named read-outs stand apart in the source and are kept apart here.

B1: P2-AA (peptide)
chain: DKIAALKAKNAALKAKNAALKAKIAALKG
B2: P9-AA (peptide)
chain: DENAALEAKNAALKAEIAALEAEIAALEG
B3: P12-AA (peptide)
chain: DKNAALKAKIAALKAKIAALKAENAALEG
B4: P7-AA (peptide)
chain: DEIAALEAKNAALKAEIAALEAKNAALKG
B5: P10-AA (peptide)
chain: DKNAALKAENAALEAKIAALKAKIAALKG
B6: P3-AA (peptide)
chain: DEIAALEAEIAALEAKNAALKAKNAALKG
B7: O8-bS (peptide)
chain: DEISQLEQENSELEQEISELEWKNSQLKQ

Experiments:
[1] = target: T1, P2-AA; test: two-hybrid library CCmax;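 also: natural log of median RNA to DNA barcode read ratio; higher means stronger binding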
T1 chain: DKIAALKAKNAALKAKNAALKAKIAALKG

[2] = target: T2, P3-AA; test: two-hybrid library CCmax;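 also: natural log of median RNA to DNA barcode read ratio; higher means stronger binding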
T2 chain: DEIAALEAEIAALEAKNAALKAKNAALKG

[3] = target: T3, P4-AA; test: two-hybrid library CCmax; conditions: mean of both orientations;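 also: natural log of median RNA to DNA barcode read ratio; higher means stronger binding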
T3 chain: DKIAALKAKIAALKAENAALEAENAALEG

[4] = target: T4, P7-AA; test: two-hybrid library CCmax;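 also: natural log of median RNA to DNA barcode read ratio; higher means stronger binding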
T4 chain: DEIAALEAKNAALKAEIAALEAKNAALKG

[5] = target: T5, P8-AA; test: two-hybrid library CCmax; conditions: mean of both orientations;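 also: natural log of median RNA to DNA barcode read ratio; higher means stronger binding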
T5 chain: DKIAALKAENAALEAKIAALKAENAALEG

[6] = target: T6, P9-AA; test: two-hybrid library CCmax;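 also: natural log of median RNA to DNA barcode read ratio; higher means stronger binding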
T6 chain: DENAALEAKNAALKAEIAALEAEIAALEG

[7] = target: T7, zCON9_A; test: two-hybrid library CCmax
T7 chain: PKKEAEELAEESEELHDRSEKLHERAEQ

[8] = target: T8, zCON9_B; test: two-hybrid library CCmax
T8 chain: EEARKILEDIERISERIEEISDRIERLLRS

[9] = target: T9, zCON9_D; test: two-hybrid library CCmax
T9 chain: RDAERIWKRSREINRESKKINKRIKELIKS

[10] = target: T10, P12-AA; test: two-hybrid library CCmax
T10 chain: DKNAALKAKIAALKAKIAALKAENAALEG

[11] = target: T11, P10-AA; test: two-hybrid library CCmax
T11 chain: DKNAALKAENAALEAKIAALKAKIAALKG

[12] = target: T12, P11-AA; test: two-hybrid library CCmax; conditions: mean of both orientations
T12 chain: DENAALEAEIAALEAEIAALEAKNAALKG

[13] = target: T13, O8-bS; test: two-hybrid library CCNG1
T13 chain: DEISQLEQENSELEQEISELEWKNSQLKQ

[14] = target: T14, O9-bS; test: two-hybrid library CCNG1
T14 chain: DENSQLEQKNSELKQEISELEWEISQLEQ

Binder	interaction score ([2]; mean of both orientations)	interaction score [3]	interaction score ([4]; mean of both orientations)	interaction score [5]	interaction score ([6]; mean of both orientations)	interaction score ([8]; mean of both orientations)	interaction score ([9]; mean of both orientations)	interaction score [7]	also measured
B1	-1.6	-0.357	-1.47	-1.37	-0.716	1.28	-2.05		interaction score [1]: -0.878; interaction score ([7]; mean of both orientations): -1.98
B2							-1.94	-1.13	interaction score [6]: -1.97; interaction score [8]: -1.59
B3	1.42	-1.68	-1.45	-1.95	0.219	0.333	-2.06	-1.73	interaction score [10]: -1.64; interaction score ([1]; mean of both orientations): -1.74
B4				1.87	-1.14	-1.46		-1.78	interaction score [4]: -1.79; interaction score [9]: -1.95
B5	-0.118	-1.35	-0.0691	-1.28	2.32	-0.0248			interaction score [11]: -0.869; interaction score [12]: 1.43; interaction score ([10]; mean of both orientations): -1.23; interaction score ([1]; mean of both orientations): -1.38; interaction score ([7]; mean of both orientations): -1.58; interaction score [9]: -1.97
B6		2.28	-1.27	-0.983	-1.38	-1.33	-2.08	-1.78	interaction score [2]: -1.46
B7									interaction score [13]: -2.12; interaction score [14]: -0.376
